Molecular target: T1, AcFur (Acidithiobacillus caldus MTH-04) (UniProt A0A060A2G1)
T1 sequence: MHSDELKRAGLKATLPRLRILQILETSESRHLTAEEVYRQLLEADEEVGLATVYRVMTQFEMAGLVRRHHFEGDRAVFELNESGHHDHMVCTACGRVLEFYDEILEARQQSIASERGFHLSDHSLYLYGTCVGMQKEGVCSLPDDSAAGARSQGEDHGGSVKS
Experiment: EMSA
Conditions: EMSA: 0.4 nM DNA, 0/2/4/8 nM protein, 10 mM Tris-HCl pH 8.0, 100 mM NaCl, 1 mM MnCl2, room temperature, 30 min; 5% native PAGE in 0.5x TBE, EB stain

Sequence | binding
GCGTAGGACGTCCTTGATAACTGCAACTAAGTTGCATATATTCCGCACGACCACTCCGCGCGTCCCTGGGGAGCTTGACCGGTAAGTCTATTTATTGAATGATAATGATTAGCATTTATATTATTTGGAGAGATTGTCCATGCGTCGTATACCCCTCTGTGCGCTGCTGAGCACCATGCTTGCTTCCAGC (double strand) [feoP promoter] | binds
TTCCACCTGCTCACCTGCGCGGGCCGAGCTCAGGCGGTGGGGGGAAAGGACTTGGGTCATGACGCTCACACTCCCAACGAGTTCGTGGGGACACTATATCATAATGGTAATCATTTGCAATATCAGCCCAAGGGAGGGCCGTCCCGGCGGACGCAGCCGCCGACGCTCAGTCCAGGTCGCCGTGCCTGGGTGTAAAACGC (double strand) [feoABC operator (feoA promoter)] | binds

From paper PMC7237784
